Assay [1] deals with Δ123 E2661 M + C597A (HCV genotype 1a H77c, UniProt P27958 409-661). Briefly: EIA: E2 titrated on coated MBP-LEL113-201 (5 ug/ml), detected with anti-His.
Assay [2] deals with WT E2661 M + C597A (C452A, C486A, C569A, C581A, C585A, C597A and C652A) (HCV genotype 1a H77c, UniProt P27958 384-661). The description is as above.

B1: MBP-LEL113-201, maltose-binding protein linked to the CD81 large extracellular loop between residues 113 to 201 (receptor)
chain: FVNKDQIAKDVKQFYDQALQQAVVDDDANNAKAVVKTFHETLDCCGSSTLTALTTSVLKNNLCPSGSNIISNLFKEDCHQKIDDLFSGK
notes: range 113-201; also called CD81-LEL; CD81 LEL
On to B1, for which the binding result in assay [1] and in assay [2] was “binds” in each case.

These data come from US20130224246A1 (MACFARLANE BURNET INSTITUTE FOR MEDICAL RESEARCH AND PUBLIC …, published 2013).
